# Assay results taken from patent US20210079398A1.
# Key:
# [1] = target: Bradykinin peptide-oligonucleotide conjugate (Brady.O1); test: BCS binding assay on a sequencing chip (Cycle 1), NGS count of the nanobody barcode on foundation Brady.O1_BCS4_Fd13 (non-specific peptide control)
# [2] = target: Spot-Tag peptide-oligonucleotide conjugate (Spot-Tag.O1); test: BCS binding assay on a sequencing chip (Cycle 1), NGS count of the nanobody barcode on foundation Spot-Tag.O1_BCS4_Fd27
# [3] = target: Bradykinin peptide-oligonucleotide conjugate (Brady.O1); test: BCS binding assay on a sequencing chip (Cycle 1), NGS count of the nanobody barcode on foundation Brady.O1_BCS4_Fd14 (non-specific peptide control)
# [4] = target: Spot-Tag peptide-oligonucleotide conjugate (Spot-Tag.O1); test: BCS binding assay on a sequencing chip (Cycle 1), NGS count of the nanobody barcode on foundation Spot-Tag.O1_BCS4_Fd29
# [5] = target: Spot-Tag peptide-oligonucleotide conjugate (Spot-Tag.O1); test: BCS binding assay on a sequencing chip (Cycle 1), NGS count of the nanobody barcode on foundation Spot-Tag.O1_BCS4_Fd20
# [6] = target: Bradykinin peptide-oligonucleotide conjugate (Brady.O1); test: BCS binding assay on a sequencing chip (Cycle 1), NGS count of the nanobody barcode on foundation Brady.O1_BCS4_Fd12 (non-specific peptide control)
# [7] = target: Spot-Tag peptide-oligonucleotide conjugate (Spot-Tag.O1); test: BCS binding assay on a sequencing chip (Cycle 1), NGS count of the nanobody barcode on foundation Spot-Tag.O1_BCS4_Fd19
# [8] = target: Spot-Tag peptide-oligonucleotide conjugate (Spot-Tag.O1); test: BCS binding assay on a sequencing chip (Cycle 1), NGS count of the nanobody barcode on foundation Spot-Tag.O1_BCS4_Fd31
# [9] = target: Spot-Tag peptide-oligonucleotide conjugate (Spot-Tag.O1); test: BCS binding assay on a sequencing chip (Cycle 1), NGS count of the nanobody barcode on foundation Spot-Tag.O1_BCS4_Fd28
substance,measurement,setting,value
Spot-tag nanobody-oligo conjugate (VHH),sequencing counts of binder barcode ligated to target foundation,[1],1620 counts
same,sequencing counts of binder barcode ligated to target foundation,[2],3380 counts
same,sequencing counts of binder barcode ligated to target foundation,[3],587 counts
same,sequencing counts of binder barcode ligated to target foundation,[4],10600 counts
same,sequencing counts of binder barcode ligated to target foundation,[5],9650 counts
same,sequencing counts of binder barcode ligated to target foundation,[6],40 counts
same,sequencing counts of binder barcode ligated to target foundation,[7],6900 counts
same,sequencing counts of binder barcode ligated to target foundation,[8],6160 counts
same,sequencing counts of binder barcode ligated to target foundation,[9],4880 counts
